Measurements as given in publication PMC6872946 (Growth factors (Chur, Switzerland), 2019).
Where two headings read alike, the source gives them in different places.

What was measured:
[1] = biological target: PDGF-C growth factor domain (human); assay: immunoblot after cleavage with matriptase
[2] = biological target: the molecule itself; assay: non-reducing SDS-PAGE and immunoblot
[3] = biological target: the molecule itself; assay: non-reducing SDS-PAGE and immunoblot; remark: listed apart in the source

PDGF-C growth factor domain (domain or fragment)
stoichiometry N [1]: 2

B1: truncated PDGF-C isoform with a C-terminal myc tag (t-PDGF-C-myc), in COS-1 cells (natural protein, human, UniProt Q9NRA1 164-345, looked up)
chain: MPQFTEAVSPSVLPPSALPLDLLNNAITAFSTLEDLIRYLEPERWQLDLEDLYRPTWQLLGKAFVFGRKSRVVDLNLLTEEVRLYSCTPRNFSVSIREELKRTDTIFWPGCLLVKRCGGNCACCLHNCNECQCVPSKVTKKYHEVLQLRPKTGVRGLHKSLTDVALEHHEECDCVCRGSTGG
stoichiometry N [2]: 2

B2: truncated PDGF-C isoform with a myc tag (t-PDGF-C/myc), stably expressed in BT-549 cells (natural protein, human, UniProt Q9NRA1 164-345, looked up)
chain: B1 chain
stoichiometry N [3]: 2
